Experimental data taken from article PMC2279300.

How the values were obtained:
[1] = target: biotinylated oligopeptide spanning one repeat unit of the TARP phosphodomain, first tyrosine phosphorylated (pY1) (Chlamydia trachomatis serovar L2)
[2] = target: biotinylated oligopeptide spanning one repeat unit of the TARP phosphodomain, second tyrosine phosphorylated (pY2) (Chlamydia trachomatis serovar L2)
Chain of biotinylated oligopeptide spanning one repeat unit of the TARP phosphodomain, second tyrosine phosphorylated (pY2) (Chlamydia trachomatis serovar L2) (Q6GX35 174-222): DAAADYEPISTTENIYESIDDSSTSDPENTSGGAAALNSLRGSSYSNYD

Chain of biotinylated oligopeptide spanning one repeat unit of the TARP phosphodomain, first tyrosine phosphorylated (pY1) (Chlamydia trachomatis serovar L2) (Q6GX35 174-222): as above

Substance | guanine nucleotide exchange activity towards His-Cdc42 of the pY1 oligopeptide precipitate from lysate supplemented with PI 3,4,5-P3 (32P label retained on filters) [1] [CPM] | guanine nucleotide exchange activity towards His-Rac1 of the pY1 oligopeptide precipitate from lysate supplemented with PI 3,4,5-P3 (32P label retained on filters) [1] [CPM] | guanine nucleotide exchange activity towards His-Cdc42 of the pY2 oligopeptide precipitate from lysate supplemented with PI 3,4,5-P3 (32P label retained on filters) [2] [CPM] | guanine nucleotide exchange activity towards His-Rac1 of the pY2 oligopeptide precipitate from lysate supplemented with PI 3,4,5-P3 (32P label retained on filters) [2] [CPM] | guanine nucleotide exchange activity towards His-Rac1 of the pY1 oligopeptide precipitate from regular HeLa lysate (32P label retained on filters) [1] [CPM]
Vav2 (from UniProt P52735 1-878) (natural protein) | 28700 | 51200 | 23000 | 31700 | 
Sos1 (from UniProt Q07889 1-1333) (natural protein) |  |  |  |  | 31000
